Test results reported in article PMC11040352, “CD38‐Specific Gallium‐68 Labeled Peptide Radiotracer Enables Pharmacodynamic Monitoring in Multiple Myeloma with PET” (Advanced Science, 2024).
Starred links: 1 amine or outer side, 2 acyl side, 3 side chain; linkers in the order of their positions; H or OH if unused. Positions of bridges follow the written chain, without caps; N, C: chain ends. Primed or numbered codes have the meaning given here. *: point of attachment. NOTA = O=C(O)CN1CCN(CC(=O)O)CCN(CC(=O)*)CC1; TBMB = c1c(C[*:1])cc(C[*:3])cc1C[*:2]; PEG3′ = not defined here

Target: His-Tagged human CD38 (recombinant) (human) (UniProt P28907)
Assay: SPR; Biacore T200, CM5 chip, 25 °C; His-tagged CD38 captured by immobilised anti-His antibody (human about 860 RU, mouse 1360 RU); AJ206 as analyte, 300 × 10^-9 M down to 1.2 × 10^-9 M; PBS-P + 1% DMSO, pH 7.4; 50 µL/min; contact 120 s, dissociation 360 s

- Kd: 19.1 nM
Binder: {NOTA-PEG3′}-ACVPCADFPIWYC-NH2 (linker 2-5-13 via TBMB) [AJ206]
